Measurements reported in patent US20140148355A1, “COMPOSITIONS AND METHODS FOR ANALYSIS OF H3K4 METHYLATED CHROMATIN” (UNIVERSITY OF OSLO, priority 2011, published 2014).

How the values were obtained:
[1] = molecular target: T1, three methylated forms of H3K27-peptides (Homo sapiens, UniProt P68431); test: Histone peptide binding (pull-down) assay, methylated H3K27 peptides; conditions: protein:peptide 1.0 μg:0.5 μg
T1 construct: purchased Upstate Biotechnology
Protocol: (§1) FIG. 3 The ASHH2 CW domain binds histone H3 tails methylation on lysine 4. (A) Cartoon of the ASHH2 protein with CW, AWS and KMT (SET domain) indicated. The two recombinant proteins used in this study are also illustrated. (B) SDS-PAGE of purified GST and GST-ASHH2-CW. (C) Pull-down assay using biotinylated histone peptides and recombinant GST, GST-ASHH2-CW and GST-ING2-PHD as indicated. The ratio of proteins and peptides were 0.5 μg:0.5 μg. (D) Pull-down assay using biotinylated histone peptides and recombinant GST and GST-ASHH2-CW as indicated. The ratio of proteins and peptides were 1.0 μg:0.5 μg. (E) Surface plasmon resonance traces from an experiment with immobilised, biotinylated H3K4me1 peptide and GST-ASHH2-CW. (F) Dissociation constants for GST-ASHH2-CW and the three H3K4me peptides indicated calculated from surface plasmon resonance data. The number of replicates are indicated.
(§2) Histone peptide binding assays were performed as described by Shi et al (2006) with biotinylated histone peptides from Upstate Biotechnology. The protein-peptide ratio used is indicated in the legends to the figures. Bound proteins were visualized by immunoblotting using rabbit anti-GST antibodies Z-5 (SC-456) from Santa Cruz at a 1:20,000 dilution, and a donkey anti-rabbit HRP conjugate (Amersham NA934) at a 1:10,000 dilution.

[2] = system: chromatin associated with genes regulated by ASHH2; test: Chromatin pulldown (ChPD) followed by qPCR on ASHH2 target genes; assay type: binding, Arabidopsis; conditions: seedling chromatin; GST alone as negative control
From the text: (§3) FIG. 8 Chromatin pulldown (ChPD) using the ASHH2 CW. […] Modified histones were visualised by western blot using antibodies as indicated. Molecular size markers are shown to the right. (B) qPCR with primers for assumed ASHH2 target genes on DNA isolated from seedling chromatin pulled down with GST-CWASHH2. ChPD with GST alone was used as a negative control. Data are shown as percent of input. The Ta3 retrotransposon was used as reference. Standard deviations are shown. (C) ChIP using antibodies against H3K4me1, H3K4me3 and H3K36me3 and primers for the same genes as in (B). Data are shown relative to Ta3. (D) ChPD from wt and ashh2 mutant seedlings as in (A) using antibodies as indicated. ChPD with GST alone was used as a negative control and histone H3 as reference.
(§4) Chromatin pull-down (ChPD) was performed using crude chromatin in ChIP dilution buffer (1.1% Triton X-100, 1.2 mM EDTA, 16.7 mM Tris-HCL pH 8, 167 mM NaCl) prepared as for ChIP (Gendrel et al., 2005) incubated with 8 μg GST-CW fusion protein and control proteins (only GST alone, or together with GST-CW-W874A and GST-WIYLD) over night. For western blotting, the pulled down chromatin was washed three times in ChIP dilution buffer, run on a 15% SDS-PAGE and blotted onto a PVDF membrane. […]

[3] = molecular target: T2, methylated H3K4 peptides (panel of biotinylated histone tail peptides) (Homo sapiens, UniProt P68431); test: Histone peptide binding (pull-down) assay with biotinylated histone peptides; conditions: for preference for methylation state of H3K4 peptides: pull-down with biotinylated histone peptides, anti-GST immunoblot
T2 construct: purchased Upstate Biotechnology
Protocol: as §1
(§5) FIG. 4 CW domains from four different proteins bind methylated H3K4 peptides. (A) Cartoons of the proteins studied: human MORC4, Arabidopsis VAL1, and human ZCWPW1. (B, C) Pull-down assay using biotinylated histone peptides and (B) recombinant GST, GST-Val1-CW and GST-MORC4-CW or (C) GST, GST-ASHH2-CW, and GST-ZCWPW1-CW, as indicated. The ratio of proteins and peptides were equimolar.
(§6) FIG. 7 Probing the predicted histone tail binding site with mutant CW domains. […] The predicted binding site for the histone tail is indicated as in FIG. 6D. (B and C) Pull-down assays using biotinylated histone peptides and recombinant GST and GST-ASHH2-CW mutant proteins as indicated. The ratio of proteins and peptides were 1.0 μg:0.5 μg.
as §2

[4] = system: methylated H3K4 peptides (panel of biotinylated histone tail peptides); test: as above; conditions: panel incl. trimethylated H3K27 and H3K36 peptides
Protocol: as §1, §5, §6, §2

[5] = system: H3K4me2 in Arabidopsis chromatin; test: Chromatin pulldown (ChPD), western blot quantification, H3K4me2; assay type: binding; conditions: chromatin from Arabidopsis seedlings, anti-H3K4me2 western blot
From the text: as §3, §4

[6] = molecular target: biotinylated H3 peptide trimethylated on lysine 4 (H3K4me3) (Homo sapiens, UniProt P68431); test: Surface plasmon resonance (BIAcore T100) binding to immobilised H3K4me3 peptide; conditions: GST-tagged protein 0.1 μM to 10 μM, HBS-P buffer
Protocol: (§7) Surface plasmon resonance binding assays were performed on a BIAcore T100 biosensor according to the manufacturers protocols using immobilized, biotinylated H3 peptides monomethylated (0.54 ng), dimethylated (0.24 ng), or trimethylated (0.48 ng) on lysine 4. GST-tagged ASHH2 CW protein in five different concentrations in a range from 0.1 μM to 10 μM was injected for 2 min at a flow rate of 10 μl/min. Each sample injection was followed by injection of HBS-P buffer (10 mM HEPES pH 7; 150 mM NaCl) alone for 5 min at a flow rate of 5 μl/min. Kd values were obtained using the Biacore T100 Evaluation software 2.0.1. Measurements were repeated 2 to 5 times.

[7] = molecular target: biotinylated H3 peptide dimethylated on lysine 4 (H3K4me2) (Homo sapiens, UniProt P68431); test: Surface plasmon resonance (BIAcore T100) binding to immobilised H3K4me2 peptide; conditions: GST-tagged protein 0.1 μM to 10 μM, HBS-P buffer
Protocol: as §7

[8] = molecular target: biotinylated H3 peptide monomethylated on lysine 4 (H3K4me1) (Homo sapiens, UniProt P68431); test: Surface plasmon resonance (BIAcore T100) binding to immobilised H3K4me1 peptide; conditions: GST-tagged protein 0.1 μM to 10 μM, HBS-P buffer
Protocol: as §7

[9] = system: H3K4 methylated chromatin; test: Chromatin pulldown (ChPD) with western blot detection; assay type: binding; conditions: antibodies against each of the three H3K4 methylation states; Arabidopsis seedling chromatin
From the text: as §3, §4

[10] = system: H3K4me1 in Arabidopsis chromatin; test: Chromatin pulldown (ChPD), western blot quantification, H3K4me1; assay type: binding; conditions: chromatin from Arabidopsis seedlings, anti-H3K4me1 western blot
From the text: as §3, §4

H3K4me3 peptide = molecular target: T3, H3K4me3 peptide (Homo sapiens, UniProt P68431); test: Histone peptide binding (pull-down) assay, H3K4me3 peptide; conditions: protein:peptide 0.5 μg:0.5 μg
T3 construct: purchased Upstate Biotechnology
Protocol: as §1, §2

B1: GST-ASHH2-CW: Arabidopsis ASHH2 CW domain (nt 2547-2811) expressed and purified as a GST-fusion protein from bacteria (protein)
chain: VVDVTIEDSYSTESAWVRCDDCFKWRRIPASVVGSIDESSRWICMNNSDKRFADCSKSQEMSNEEINEELGIGQDEADAYDCDAAKRG
modifications: left off: a dimerising Fc or GST
notes: Arabidopsis ASHH2 CW domain (nt 2547-2811) expressed and purified as a GST-fusion protein from bacteria
- binding to methylated H3K27-peptides [1]: no binding was observed
- binding of chromatin associated with ASHH2-regulated genes (real-time PCR) [2]: significantly above background levels
- preference for methylation state of H3K4 peptides [3]: preference for mono- and dimethylated H3K4 peptides
- sequence selectivity on histone peptide panel [4]: only binds the methylated H3K4 peptides
- bound H3K4me2 chromatin relative to input chromatin [5]: 3.3 times of input material (2.5%)
- Kd [6]: 4000 nM
- Kd [7]: 2100 nM
- Kd [8]: 1150 nM
- pull down of H3K4 methylated chromatin (western blot signal) [9]: Strong signals
- bound H3K4me1 chromatin relative to input chromatin [10]: 4.4 times of input material (2.5%)
- binding to the H3K4me3 peptide (H3K4me3 peptide): close to background levels

B2: GST-MORC4-CW: human MORC4 CW domain (nt 1236-1422, from HEK293 cDNA) as GST fusion protein (protein)
chain: TVARPIPKVPDQTWVQCDECLKWRKLPGKIDPSMLPARWFCYYNSHPKYRRCSVPEEQELTD
modifications: also: GST fusion partner not part of the given chain
notes: human MORC4 CW domain (nt 1236-1422, from HEK293 cDNA) as GST fusion protein
- preference for methylation state of H3K4 peptides [3]: preference for H3K4me2

B3: GST-ZCWPW1-CW: human ZCWPW1 CW domain (nt 714-942, from HEK293 cDNA) as GST fusion protein (protein)
chain: IRDQQKGEISGFGQCLVWVQCSFPNCGKWRRLCGNIDPSVLPDNWSCDQNTDVQYNRCDIPEETWTGLESDVAYAS
modifications: left off: a dimerising Fc or GST
notes: human ZCWPW1 CW domain (nt 714-942, from HEK293 cDNA) as GST fusion protein
- preference for methylation state of H3K4 peptides [3]: clear preference for H3 Kme2 and me3 peptides

B4: GST-Val1-CW: Arabidopsis VAL1 CW domain (nt 1575-1797) as GST fusion protein (protein)
chain: VFGKRTIVTTKPSGEQERWATCDDCSKWRRLPVDALLSFKWTCIDNVWDVSRCSCSAPEESLKELENVLKVGRE
modifications: left off: a dimerising Fc or GST
notes: Arabidopsis VAL1 CW domain (nt 1575-1797) as GST fusion protein
- preference for methylation state of H3K4 peptides ([3]; listed as VAL1): strongest preference for K4me3
- preference for methylation state of H3K4 peptides ([3]; listed as VAL1 CW): clear preference for H3 Kme2 and me3 peptides

B5: W865A: GST-ASHH2-CW mutant, tryptophan 865 to alanine (protein)
chain: MVVDVTIEDSYSTESAAVRCDDCFKWRRIPASVVGSIDESSRWICMNNSDKRFADCSKSQEMSNEEINEELGIGQDEADAYDCDAAKRG
modifications: left off: a dimerising Fc or GST; large carriers; small tags and cut ends
notes: GST-ASHH2-CW mutant, tryptophan 865 to alanine
- histone tail binding of mutant ASHH2 CW domains ([3]; pull-down, protein:peptide 1.0 μg:0.5 μg): abolished histone tail binding
